Measured values reported in the Human Domainome abundance scans (Beltran et al. 2025).
± gives the uncertainty stated by the source.

B1: Zinc finger MYM-type protein 6, residues 427 to 504; numbered along this chain, O95789 (parent)
chain: KLKCQHCNHLFATKPELLFYKGKMFLFCGKNCSDEYKKKNKVVAMCDYCKLQKIIKETVRFSGVDKPFCSEVCKFLSA

Variants of: B1
Experiment: abundance fitness (aPCA) (normalised: wild type 0, dead -1); higher = more abundant; growth selection in yeast, the domain comes from the species named
Settings: Homo sapiens

Variant	abundance fitness
LLKCQHCNHLFATKPELLFYKGKMFLFCGKNCSDEYKKKNKVVAMCDYCKLQKIIKETVRFSGVDKPFCSEVCKFLSA [K1L]	-0.271 ± 0.047
CLKCQHCNHLFATKPELLFYKGKMFLFCGKNCSDEYKKKNKVVAMCDYCKLQKIIKETVRFSGVDKPFCSEVCKFLSA [K1C]	-0.147 ± 0.048
ALKCQHCNHLFATKPELLFYKGKMFLFCGKNCSDEYKKKNKVVAMCDYCKLQKIIKETVRFSGVDKPFCSEVCKFLSA [K1A]	-0.276 ± 0.041
FLKCQHCNHLFATKPELLFYKGKMFLFCGKNCSDEYKKKNKVVAMCDYCKLQKIIKETVRFSGVDKPFCSEVCKFLSA [K1F]	-0.697 ± 0.34
VLKCQHCNHLFATKPELLFYKGKMFLFCGKNCSDEYKKKNKVVAMCDYCKLQKIIKETVRFSGVDKPFCSEVCKFLSA [K1V]	-0.355 ± 0.039
SLKCQHCNHLFATKPELLFYKGKMFLFCGKNCSDEYKKKNKVVAMCDYCKLQKIIKETVRFSGVDKPFCSEVCKFLSA [K1S]	-0.131 ± 0.076
HLKCQHCNHLFATKPELLFYKGKMFLFCGKNCSDEYKKKNKVVAMCDYCKLQKIIKETVRFSGVDKPFCSEVCKFLSA [K1H]	-0.209 ± 0.067
MLKCQHCNHLFATKPELLFYKGKMFLFCGKNCSDEYKKKNKVVAMCDYCKLQKIIKETVRFSGVDKPFCSEVCKFLSA [K1M]	-0.252 ± 0.05
WLKCQHCNHLFATKPELLFYKGKMFLFCGKNCSDEYKKKNKVVAMCDYCKLQKIIKETVRFSGVDKPFCSEVCKFLSA [K1W]	-0.536 ± 0.038
GLKCQHCNHLFATKPELLFYKGKMFLFCGKNCSDEYKKKNKVVAMCDYCKLQKIIKETVRFSGVDKPFCSEVCKFLSA [K1G]	-0.229 ± 0.033
DLKCQHCNHLFATKPELLFYKGKMFLFCGKNCSDEYKKKNKVVAMCDYCKLQKIIKETVRFSGVDKPFCSEVCKFLSA [K1D]	-0.008 ± 0.055
QLKCQHCNHLFATKPELLFYKGKMFLFCGKNCSDEYKKKNKVVAMCDYCKLQKIIKETVRFSGVDKPFCSEVCKFLSA [K1Q]	-0.194 ± 0.14
ELKCQHCNHLFATKPELLFYKGKMFLFCGKNCSDEYKKKNKVVAMCDYCKLQKIIKETVRFSGVDKPFCSEVCKFLSA [K1E]	-0.104 ± 0.046
KRKCQHCNHLFATKPELLFYKGKMFLFCGKNCSDEYKKKNKVVAMCDYCKLQKIIKETVRFSGVDKPFCSEVCKFLSA [L2R]	0.014 ± 0.028
KMKCQHCNHLFATKPELLFYKGKMFLFCGKNCSDEYKKKNKVVAMCDYCKLQKIIKETVRFSGVDKPFCSEVCKFLSA [L2M]	0.048 ± 0.084
KQKCQHCNHLFATKPELLFYKGKMFLFCGKNCSDEYKKKNKVVAMCDYCKLQKIIKETVRFSGVDKPFCSEVCKFLSA [L2Q]	0.099 ± 0.059
KIKCQHCNHLFATKPELLFYKGKMFLFCGKNCSDEYKKKNKVVAMCDYCKLQKIIKETVRFSGVDKPFCSEVCKFLSA [L2I]	-0.06 ± 0.054
KPKCQHCNHLFATKPELLFYKGKMFLFCGKNCSDEYKKKNKVVAMCDYCKLQKIIKETVRFSGVDKPFCSEVCKFLSA [L2P]	-0.068 ± 0.052
KTKCQHCNHLFATKPELLFYKGKMFLFCGKNCSDEYKKKNKVVAMCDYCKLQKIIKETVRFSGVDKPFCSEVCKFLSA [L2T]	0.125 ± 0.042

Variant	abundance fitness
KEKCQHCNHLFATKPELLFYKGKMFLFCGKNCSDEYKKKNKVVAMCDYCKLQKIIKETVRFSGVDKPFCSEVCKFLSA [L2E]	0.109 ± 0.035
KDKCQHCNHLFATKPELLFYKGKMFLFCGKNCSDEYKKKNKVVAMCDYCKLQKIIKETVRFSGVDKPFCSEVCKFLSA [L2D]	0.069 ± 0.054
KHKCQHCNHLFATKPELLFYKGKMFLFCGKNCSDEYKKKNKVVAMCDYCKLQKIIKETVRFSGVDKPFCSEVCKFLSA [L2H]	-0.131 ± 0.11
KFKCQHCNHLFATKPELLFYKGKMFLFCGKNCSDEYKKKNKVVAMCDYCKLQKIIKETVRFSGVDKPFCSEVCKFLSA [L2F]	0.018 ± 0.14
KSKCQHCNHLFATKPELLFYKGKMFLFCGKNCSDEYKKKNKVVAMCDYCKLQKIIKETVRFSGVDKPFCSEVCKFLSA [L2S]	0.031 ± 0.038
KCKCQHCNHLFATKPELLFYKGKMFLFCGKNCSDEYKKKNKVVAMCDYCKLQKIIKETVRFSGVDKPFCSEVCKFLSA [L2C]	-0.089 ± 0.042
KWKCQHCNHLFATKPELLFYKGKMFLFCGKNCSDEYKKKNKVVAMCDYCKLQKIIKETVRFSGVDKPFCSEVCKFLSA [L2W]	-0.119 ± 0.032
KVKCQHCNHLFATKPELLFYKGKMFLFCGKNCSDEYKKKNKVVAMCDYCKLQKIIKETVRFSGVDKPFCSEVCKFLSA [L2V]	0.01 ± 0.031
KGKCQHCNHLFATKPELLFYKGKMFLFCGKNCSDEYKKKNKVVAMCDYCKLQKIIKETVRFSGVDKPFCSEVCKFLSA [L2G]	0.082 ± 0.028
KAKCQHCNHLFATKPELLFYKGKMFLFCGKNCSDEYKKKNKVVAMCDYCKLQKIIKETVRFSGVDKPFCSEVCKFLSA [L2A]	0.096 ± 0.03
KLNCQHCNHLFATKPELLFYKGKMFLFCGKNCSDEYKKKNKVVAMCDYCKLQKIIKETVRFSGVDKPFCSEVCKFLSA [K3N]	-0.011 ± 0.051
KLICQHCNHLFATKPELLFYKGKMFLFCGKNCSDEYKKKNKVVAMCDYCKLQKIIKETVRFSGVDKPFCSEVCKFLSA [K3I]	-0.124 ± 0.068
KLMCQHCNHLFATKPELLFYKGKMFLFCGKNCSDEYKKKNKVVAMCDYCKLQKIIKETVRFSGVDKPFCSEVCKFLSA [K3M]	-0.192 ± 0.051
KLLCQHCNHLFATKPELLFYKGKMFLFCGKNCSDEYKKKNKVVAMCDYCKLQKIIKETVRFSGVDKPFCSEVCKFLSA [K3L]	-0.073 ± 0.036
KLVCQHCNHLFATKPELLFYKGKMFLFCGKNCSDEYKKKNKVVAMCDYCKLQKIIKETVRFSGVDKPFCSEVCKFLSA [K3V]	-0.138 ± 0.034
KLHCQHCNHLFATKPELLFYKGKMFLFCGKNCSDEYKKKNKVVAMCDYCKLQKIIKETVRFSGVDKPFCSEVCKFLSA [K3H]	-0.156 ± 0.096
KLPCQHCNHLFATKPELLFYKGKMFLFCGKNCSDEYKKKNKVVAMCDYCKLQKIIKETVRFSGVDKPFCSEVCKFLSA [K3P]	-0.071 ± 0.043
KLQCQHCNHLFATKPELLFYKGKMFLFCGKNCSDEYKKKNKVVAMCDYCKLQKIIKETVRFSGVDKPFCSEVCKFLSA [K3Q]	-0.032 ± 0.038
